Literature values as cited in patent publication US7759315B2, “Treatment of inflammatory conditions of the intestine” (CSL Behring AG, priority 2005, dated 2010).
Non-standard residues stand in square brackets, D forms with d. No end group written: not given here. Nal = naphthylalanine (source code Z); Orn = NCCC[C@H](N)C(=O)O; Aib = CC(C)(N)C(=O)O

Target: T1, LCAT (Homo sapiens, UniProt P04180)
T1 sequence (P04180 25-440): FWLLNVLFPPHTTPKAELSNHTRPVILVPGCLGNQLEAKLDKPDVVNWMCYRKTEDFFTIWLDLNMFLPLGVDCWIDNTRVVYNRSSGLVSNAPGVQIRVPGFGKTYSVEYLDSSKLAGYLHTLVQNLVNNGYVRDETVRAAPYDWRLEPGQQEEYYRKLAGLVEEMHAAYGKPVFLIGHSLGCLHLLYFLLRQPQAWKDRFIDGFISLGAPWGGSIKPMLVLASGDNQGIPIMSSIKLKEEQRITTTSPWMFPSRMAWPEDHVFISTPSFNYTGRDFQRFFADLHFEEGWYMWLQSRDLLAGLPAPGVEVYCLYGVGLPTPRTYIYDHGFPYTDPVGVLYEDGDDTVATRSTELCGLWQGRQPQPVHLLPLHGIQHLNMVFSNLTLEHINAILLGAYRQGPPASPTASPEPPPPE
Settings: not given

Substance	ACTIVITY (%) LCAT [%]
PVLDEFRELLYEXLEALKQKLK (PVLDEFRELLYE[Aib]LEALKQKLK; not fully specified (C-terminus)) [Peptide 70]	12
PVLDLFRELLNELLEALKQ~~~ [Peptide 60]	16
PVLDLFRELLEEWKQKLK* (not fully specified (N-terminus, C-terminus); printed as PVLDLFRELLEEWKQKLK*) [Peptide 215]	38
klkqklaellenllerfldlvp (KLKQKLAELLENLLERFLDLVP; not fully specified; D-amino acids; D-Lys; D-Leu; D-Gln; D-Ala; D-Glu; D-Asn; D-Arg; D-Phe; D-Asp; D-Val; D-Pro) [Peptide 107]	0
PVLDLFRWLLNEXLEALKQKLK (PVLDLFRWLLNE[Aib]LEALKQKLK; not fully specified (C-terminus)) [Peptide 108]	0
PVLDLFRNLLEKLLEALEQKLK [Peptide 49]	22
PVLDLFRELLNEXLEAWKQKLK (PVLDLFRELLNE[Aib]LEAWKQKLK; not fully specified (C-terminus)) [Peptide 38]	29
P~~~LFRELLNELLEALKQKLK (PLFRELLNELLEALKQKLK) [Peptide 55]	19
PVLDLFRELLNELLEZLKQKLK (PVLDLFRELLNELLE[Nal]LKQKLK; not fully specified (C-terminus)) [Peptide 1]	120
PVLDLFRELLNELLEAZKQKLK (PVLDLFRELLNELLEA[Nal]KQKLK; not fully specified (C-terminus)) [Peptide 10]	79
PVLDLFRELGEELKQKLK* (not fully specified (N-terminus, C-terminus); printed as PVLDLFRELGEELKQKLK*) [Peptide 227]	0
PVLDLLRELLEELKQKLK* (not fully specified (N-terminus, C-terminus); printed as PVLDLLRELLEELKQKLK*) [Peptide 191]	100
PVLEFFENLLERLLDALQKKLK [Peptide 157]	30
PVLELFENLLEKLLEALQKKLK [Peptide 182]	7
PVLDFFREKLNEXLEALKQKLK (PVLDFFREKLNE[Aib]LEALKQKLK; not fully specified (C-terminus)) [Peptide 63]	16
PVLDAFRELAEALAQLKK [Peptide 225]	1
PVLELFENGLERLLDALQKKLK [Peptide 167]	18
PVLDLLRELLNELLEALKQKLK [Peptide 16]	59
PVLDLFRELLEELOQOLO* (PVLDLFRELLEEL[Orn]Q[Orn]L[Orn]; not fully specified (N-terminus, C-terminus); printed as PVLDLFRELLEELOQOLO*) [Peptide 211]	45
PALELFKDLLEELRQKLR* (not fully specified (N-terminus, C-terminus); printed as PALELFKDLLEELRQKLR*) [Peptide 202]	70
pvlelfenllerlldalgkklk ([dP][dV][dL][dE][dL][dF][dE][dN][dL][dL][dE][dR][dL][dL][dD][dA][dL][dQ][dK][dK][dL][dK]) [Peptide 174]	13
PVLDLFRELLNELLEALKQKKK [Peptide 56]	18

Substance	ACTIVITY (%) LCAT [%]
PLLELLKELLEELKQKLK* (not fully specified (N-terminus, C-terminus); printed as PLLELLKELLEELKQKLK*) [Peptide 206]	57
PKLDEFREKLNEXLEALKQKLK (PKLDEFREKLNE[Aib]LEALKQKLK; not fully specified (C-terminus)) [Peptide 115]	0
PVLELFENLLERWLDALQKKLK [Peptide 181]	8
PVLELFKELLEELKQKLK* (not fully specified (N-terminus, C-terminus); printed as PVLELFKELLEELKQKLK*) [Peptide 195]	87
GVLDLFRELLNELLEALKQKLKK [Peptide 2]	105
PVLELFKELLEELKQKLK [Peptide 216]	35
NVLDLFRELLEELKQKLK* (not fully specified (N-terminus, C-terminus); printed as NVLDLFRELLEELKQKLK*) [Peptide 200]	75
PVLELFENLLERLLELLNKKLK [Peptide 175]	13
PVLDEFWEKLNEXLEALKQKLK (PVLDEFWEKLNE[Aib]LEALKQKLK; not fully specified (C-terminus)) [Peptide 73]	10
PVLDLFRELLEELKNKLK* (not fully specified (N-terminus, C-terminus); printed as PVLDLFRELLEELKNKLK*) [Peptide 196]	81
PVLELFENLLERLLEALQKKLK [Peptide 161]	27
AVLELFENLLERLLDALQKKLK [Peptide 153]	49
PVLDLFRELLNELLELLKQKLK [Peptide 127]	47
PVLELFENLLERLLDLLQKKLK [Peptide 165]	23
PVLDAFRELLEALLQLKK [Peptide 222]	8
PLLELFENLLEKLLDALQKKLK [Peptide 183]	6
PVLELFENLGERLLDALQKKLK [Peptide 151]	55
pvLDLFRELLNELLEALKQKLK [Peptide 48]	22
PVLDLFREKLNEELEALKQKLK [Peptide 106]	0
PVLELFLNLLERLGDALQKKLK [Peptide 172]	16
PVLDLFKELLEELKQKLK* (not fully specified (N-terminus, C-terminus); printed as PVLDLFKELLEELKQKLK*) [Peptide 192]	100
PVLDLFRELLNELLE~~~~~~~ [Peptide 97]	4

Substance	ACTIVITY (%) LCAT [%]
PVLELFENLLEKLLDLLQKKLK [Peptide 171]	16
PVLDLFRELLEEGKQKLK* (not fully specified (N-terminus, C-terminus); printed as PVLDLFRELLEEGKQKLK*) [Peptide 229]	0
~~~DEFREKLNEXLEALKQKLK (DEFREKLNE[Aib]LEALKQKLK; not fully specified (C-terminus); printed as ~~~DEFREKLNEXLEALKQKLK) [Peptide 90]	6
DWFKAFYDKVFEKFKEFF [Peptide 241]	8
PVLDLFRELLNELLEAGKQKLK [Peptide 12]	70
PVLELFDNLLERLLDALQKKLK [Peptide 179]	8
DVLDLFRELLEELKQKLK* (not fully specified (N-terminus, C-terminus); printed as DVLDLFRELLEELKQKLK*) [Peptide 221]	12
AVLDLFRELLEELKQKLK* (not fully specified (N-terminus, C-terminus); printed as AVLDLFRELLEELKQKLK*) [Peptide 203]	66
pVLDLFRELLNELLEALKQKLKK ([dP]VLDLFRELLNELLEALKQKLKK; not fully specified (C-terminus); printed as pVLDLFRELLNELLEALKQKLKK) [Peptide 5]	90
PVLELFENLLERLLDALQOOLO (PVLELFENLLERLLDALQ[Orn][Orn]L[Orn]; not fully specified (C-terminus)) [Peptide 185]	3
PVLDEFREKLNEELEWLKQKLK [Peptide 122]	0
PVLELFLNLLEKLLDALQKKLK [Peptide 166]	22
~VLDLFRELLNEGLEALKQKLK [Peptide 47]	23
PVLELLKELLEELKQKLK* (not fully specified (N-terminus, C-terminus); printed as PVLELLKELLEELKQKLK*) [Peptide 207]	50
PVLELFENLLERLFDALQKKLK [Peptide 147]	76
GVLDLFRELLEELKQKLK* (not fully specified (N-terminus, C-terminus); printed as GVLDLFRELLEELKQKLK*) [Peptide 198]	80
PVLDEFREKLWEXLEALKQKLK (PVLDEFREKLWE[Aib]LEALKQKLK; not fully specified (C-terminus)) [Peptide 43]	25
LVLDLFRELLNELLEALKQKLK [Peptide 59]	17
PHLDEFREKLNEXLEALKQKLK (PHLDEFREKLNE[Aib]LEALKQKLK; not fully specified (C-terminus)) [Peptide 116]	0
PVLELFENLLEKLLDALQKKLK [Peptide 169]	17
PLLDLFKELLEELKQKLK* (not fully specified (N-terminus, C-terminus); printed as PLLDLFKELLEELKQKLK*) [Peptide 201]	74

System: not given
Settings: percent helicity, micelles

Substance	He (%)
PVLDEFRELLYEXLEALKQKLK (PVLDEFRELLYE[Aib]LEALKQKLK; not fully specified (C-terminus)) [Peptide 70]	78%
PVLDLFRELLNELLEALKQ~~~ [Peptide 60]	83%
PVLDLFRELLEEWKQKLK* (not fully specified (N-terminus, C-terminus); printed as PVLDLFRELLEEWKQKLK*) [Peptide 215]	63%
klkqklaellenllerfldlvp (KLKQKLAELLENLLERFLDLVP; not fully specified; D-amino acids; D-Lys; D-Leu; D-Gln; D-Ala; D-Glu; D-Asn; D-Arg; D-Phe; D-Asp; D-Val; D-Pro) [Peptide 107]	sp
PVLDLFRWLLNEXLEALKQKLK (PVLDLFRWLLNE[Aib]LEALKQKLK; not fully specified (C-terminus)) [Peptide 108]	55%
PVLDLFRNLLEKLLEALEQKLK [Peptide 49]	65%
PVLDLFRELLNEXLEAWKQKLK (PVLDLFRELLNE[Aib]LEAWKQKLK; not fully specified (C-terminus)) [Peptide 38]	49%
P~~~LFRELLNELLEALKQKLK (PLFRELLNELLEALKQKLK) [Peptide 55]	72%
PVLDLFRELLNELLEZLKQKLK (PVLDLFRELLNELLE[Nal]LKQKLK; not fully specified (C-terminus)) [Peptide 1]	85%
PVLDLFRELLNELLEAZKQKLK (PVLDLFRELLNELLEA[Nal]KQKLK; not fully specified (C-terminus)) [Peptide 10]	87%
Ac-PVLDEFREKLNEELEALKQKLK-NH2 [Peptide 75, reference compound]	28%
